Data taken from article PMC4726124, “Peptides in headlock – a novel high-affinity and versatile peptide-binding nanobody for proteomics and microscopy” (Scientific Reports, 2016).

Target: T1, GFP with a C-terminal BC2 tag (BC2 tag (beta-catenin 16-27) on GFP, chimera)
T1 construct: GFP ('modified GFP that contains BC2T as a C-terminal peptide tag'; its control is called wtGFP); variant and limits are in the Supplementary methods; BC2 tag (BC2T), residues 16-27 of beta-catenin, at the C-terminus; also called GFP_(BC2T); source: E. coli, soluble protein fraction of the lysate (pull-downs); protein expression and purification are told in the Supplementary methods
T1 chain: PDRKAAVSHWQQ
Test: SPR; measurements 'using the GFP_(BC2T) construct'; who was immobilised and the conditions are not told in the text shown (Supplementary methods, Supplementary Fig. 3)
Conditions: both partners purified

B1: BC2 nanobody (VHH)
VHH: QVQLVESGGGLVQPGGSLTLSCTASGFTLDHYDIGWFRQAPGKEREGVSCINNSDDDTYYADSVKGRFTIFMNNAKDTVYLQMNSLKPEDTAIYYCAEARGCKRGRYEYDFWGQGTQVTVSS
notes: In the pull-downs it is covalently coupled to Sepharose beads (BC2 nanotrap); also called BC2-Nb; wt; source: purified; expression and purification are told in the Supplementary methods
Question: How did the Kd turn out when B1 was run?
Answer: Its Kd is 1.4 ± 0.06 nM.

Question: And the koff?
Answer: Its koff is 0.00064 s⁻¹.

Question: And the kon?
Answer: Its kon is 460000 M⁻¹ s⁻¹.
